1 molecule from patent publication KR20220013302A (dated 2022) can be followed below.

Experiment [1] concerns the target T1, SARS-CoV-2 바이러스 표면 단백질 (RBD) (SARS-CoV-2, UniProt P0DTC2 319-541). Kind of experiment: BLI (Octet), Full IgG.
Experiment [2] deals with T1, SARS-CoV-2 바이러스 표면 단백질 (RBD). In words: BLI (Octet), Full IgG culture supernatant.

B1: No. 32 항체 (Full IgG) (antibody, V domains shown)
VH: EVQLVQSGGGLIQPGGSLRLSCAASEFIVSSNYMTWVRQAPGKGLEWVSIIYPGGSTYYADSVKGRFTISRDNSKNTLYLRMNSLRAEDTAVYYCARDLPLTGTTLDYWGQGTLVTVSS
VL: not shown
In experiment [1], B1 registered a Kd of 0.305 nM, an off-rate constant (koff) of 0.000193 s⁻¹ and a kon of 633000 M⁻¹ s⁻¹. In experiment [2], this molecule displayed a Kd of 0.147 nM.
